The record followed here is patent publication US20060099648A1, “Compositions and methods for epitope mapping” (priority 2000, published 2006).

B1: Peptide# 82 (peptide)
peptide: DSYPL
B2: Peptide# 73 (peptide)
peptide: KITCE
B3: Peptide# 56 (peptide)
peptide: CDADA
B4: Peptide# 59 (peptide)
peptide: DAKCT
B5: Peptide# 83 (peptide)
peptide: SYPLF
B6: Peptide# 5 (peptide)
peptide: HQCVK
B7: Peptide# 80 (peptide)
peptide: KPDSY
B8: Peptide# 77 (peptide)
peptide: ECTKP
B9: Peptide# 70 (peptide)
peptide: NGKKI
B10: Peptide# 6 (peptide)
peptide: QCVKK
B11: Peptide# 37 (peptide)
peptide: EGDKC
B12: Peptide# 47 (peptide)
peptide: PTCNE
B13: Peptide# 61 (peptide)
peptide: KCTEE
B14: Peptide# 45 (peptide)
peptide: PNPTC
B15: Peptide# 57 (peptide)
peptide: DADAK
B16: Peptide# 41 (peptide)
peptide: CVENP
B17: Peptide# 43 (peptide)
peptide: ENPNP
B18: Peptide# 72 (peptide)
peptide: KKITC
B19: Peptide# 64 (peptide)
peptide: EEDSG
B20: Peptide# 85 (peptide)
peptide: PLFDG
B21: Peptide# 8 (peptide)
peptide: VKKQC
B22: Peptide# 74 (peptide)
peptide: ITCEC
B23: Peptide# 65 (peptide)
peptide: EDSGS
B24: Peptide# 60 (peptide)
peptide: AKCTE
B25: Peptide# 42 (peptide)
peptide: VENPN
B26: Peptide# 53 (peptide)
peptide: NGGCD
B27: Peptide# 46 (peptide)
peptide: NPTCN
B28: Peptide# 66 (peptide)
peptide: DSGSN
B29: Peptide# 75 (peptide)
peptide: TCECT
B30: Peptide# 44 (peptide)
peptide: NPNPT
B31: Peptide# 81 (peptide)
peptide: PDSYP
B32: Peptide# 39 (peptide)
peptide: DKCVE
B33: Peptide# 79 (peptide)
peptide: TKPDS
B34: Peptide# 78 (peptide)
peptide: CTKPD
B35: Peptide# 40 (peptide)
peptide: KCVEN
B36: Peptide# 84 (peptide)
peptide: YPLFD
B37: Peptide# 49 (peptide)
peptide: CNENN
B38: Peptide# 52 (peptide)
peptide: NNGGC
B39: Peptide# 62 (peptide)
peptide: CTEED
B40: Peptide# 55 (peptide)
peptide: GCDAD
B41: Peptide# 38 (peptide)
peptide: GDKCV
B42: Peptide# 76 (peptide)
peptide: CECTK
B43: Peptide# 67 (peptide)
peptide: SGSNG
B44: Peptide# 48 (peptide)
peptide: TCNEN
B45: Peptide# 7 (peptide)
peptide: CVKKQ
B46: Peptide# 51 (peptide)
peptide: ENNGG
B47: Peptide# 69 (peptide)
peptide: SNGKK
B48: Peptide# 58 (peptide)
peptide: ADAKC
B49: Peptide# 50 (peptide)
peptide: NENNG
B50: Peptide# 68 (peptide)
peptide: GSNGK
B51: Peptide# 63 (peptide)
peptide: TEEDS
B52: Peptide# 71 (peptide)
peptide: GKKIT
B53: Peptide# 54 (peptide)
peptide: GGCDA
B54: Peptide# 4 (peptide)
peptide: QHQCV

The experiment has as its target Human IgG (Calbiochem; San Diego Calif.) (human). Description: IgG displaced from peptide pin; competitor MSP1-19.
Molecule B1 yielded a ΔF (%) of 9%.

With B2, the ΔF (%) worked out at 7%.

In the case of B3, the ΔF (%) was below 5%.

In the case of B4, the ΔF (%) was below 5%.

For B5, the ΔF (%) turned out to be 13%.

Take B6: the ΔF (%) was below 5%.

In the case of B7, the ΔF (%) stood at 11%.

B8 yielded a ΔF (%) of 13%.

In turn, B9 yielded a ΔF (%) of 12%.

B10 yielded a ΔF (%) below 5%.

In turn, B11 had a ΔF (%) below 5%.

B12 showed a ΔF (%) below 5%.

The molecule B13 returned a ΔF (%) of 6%.

Molecule B14 yielded a ΔF (%) below 5%.

B15 gave a ΔF (%) below 5%.

For the molecule B16, the ΔF (%) is below 5%.

Turning to B17, the ΔF (%) was below 5%.

Molecule B18 showed a ΔF (%) of 9%.

The molecule B19 displayed a ΔF (%) of 7%.

The molecule B20 yielded a ΔF (%) of 16%.

Molecule B21 showed a ΔF (%) below 5%.

In the case of B22, the ΔF (%) stood at 5%.

In the case of B23, the ΔF (%) was 7%.

B24 displayed a ΔF (%) of 5%.

Consider B25, for which the ΔF (%) was below 5%.

The molecule B26 gave a ΔF (%) of 10%.

B27 displayed a ΔF (%) below 5%.

Molecule B28 gave a ΔF (%) of 9%.

In turn, B29 came in with a ΔF (%) of 12%.

The molecule B30 yielded a ΔF (%) below 5%.

B31 showed a ΔF (%) of 9%.

Molecule B32 registered a ΔF (%) below 5%.

Consider B33, for which the ΔF (%) came to 11%.

B34 had a ΔF (%) of 10%.

B35 registered a ΔF (%) below 5%.

Consider B36, for which the ΔF (%) turned out to be 12%.

B37 yielded a ΔF (%) of 16%.

For the molecule B38, the ΔF (%) was 6%.

B39 came in with a ΔF (%) below 5%.

B40 returned a ΔF (%) of 7%.

For B41, the ΔF (%) was below 5%.

The molecule B42 came in with a ΔF (%) below 5%.

The molecule B43 registered a ΔF (%) below 5%.

In turn, B44 came in with a ΔF (%) below 5%.

Regarding B45, the ΔF (%) is below 5%.

In turn, B46 gave a ΔF (%) below 5%.

In the case of B47, the ΔF (%) is below 5%.

In turn, B48 gave a ΔF (%) below 5%.

Turning to B49, the ΔF (%) worked out at 5%.

On to B50, for which the ΔF (%) was below 5%.

In turn, B51 displayed a ΔF (%) below 5%.

B52 gave a ΔF (%) of 6%.

Turning to B53, the ΔF (%) was below 5%.

With B54, the ΔF (%) is below 5%.
